# Experimental data: PMC11870076, “Multiple carbamylation events are required for differential modulation of Cx26 hemichannels and gap junctions by CO2” (The Journal of Physiology, 2025)
# B1: chicken connexin 26 (GgCx26) gap junction channel (natural protein)
# chain: not shown
# notes: DNA encoding GgCx26 lacking a stop codon was amplified from a GgCx26-mCherry construct, forward primer at the start ATG; in the model residues before Val9, 106-124 and after Leu215 are not built; Dodecameric gap junction channel (two docked hexamers); thrombin-cleavable C-terminal His6 tag removed with thrombin before SEC; also called chicken Cx26; Chicken (Gallus gallus) Cx26; source: Sf9 cells …
# Target: the molecule itself
# Experiment: cryo-EM structure; GgCx26 in 0.03% DDM, 90 mmHg PCO2 aCSF buffer gassed with 15% CO2 to pH ~7.4, 3.4 mg/ml; reconstructions with D6 and C6 symmetry
protein,measurement,value
B1,stoichiometry N,12 subunits
